{"source": "patent US11866472B2", "about": "“Peptide for treating retinitis pigmentosa” (DAIICHI SANKYO COMPANY, LIMITED, priority 2018, dated 2024)", "molecules": {"B1": {"name": "wild-type SPINK2: human serine protease inhibitor Kazal-type 2, 7 kDa, SEQ ID NO: 1 (FIG. 13); control (protein, listed as Homo sapiens)", "chain": "DPQFGLFSKYRTPNCSQYRLPGCPRHFNPVCGSDMSTYANECTLCMKIREGGHNIKIIRNGPC"}, "B2": {"name": "H308_D1G_S16A: N-terminal derivative of H308, 1Asp substituted with Gly, with S16A, SEQ ID NO: 24 (FIG. 36) (protein)", "chain": "GPQFGLFSKYRTPNCADHAGMACVALYEPVCGSDMSTYENECVLCMKIREGGHNIKIIRNGPCGG"}, "B3": {"name": "H321AT_D1G_S16A: HTRA1-inhibiting peptide derivative, amino acid sequence SEQ ID NO: 28 (FIG. 40) (protein)", "chain": "B2 chain with H18F, A19D, V24Y, L26F, E39A, V43T"}, "B4": {"name": "H322AT_D1G_S16A: HTRA1-inhibiting peptide derivative, amino acid sequence SEQ ID NO: 29 (FIG. 41) (protein)", "chain": "B2 chain with D17Q, A19E, V24Y, E39A, V43T"}, "B5": {"name": "H308: SPINK2 mutant HTRA1-inhibiting peptide, amino acid sequence SEQ ID NO: 9 (FIG. 21) (protein)", "chain": "B2 chain with G1D, A16S"}}, "key": {"[1]": {"biological_target": "T1, HTRA1 (cat) (Homo sapiens, UniProt Q92743)", "T1 construct": "The protease domain (158Gly to 373Lys), which excludes the N-terminal domain and the PDZ domain; made in house; host or cells: E. coli BL21 (DE3)", "T1 sequence (Q92743 158-373)": "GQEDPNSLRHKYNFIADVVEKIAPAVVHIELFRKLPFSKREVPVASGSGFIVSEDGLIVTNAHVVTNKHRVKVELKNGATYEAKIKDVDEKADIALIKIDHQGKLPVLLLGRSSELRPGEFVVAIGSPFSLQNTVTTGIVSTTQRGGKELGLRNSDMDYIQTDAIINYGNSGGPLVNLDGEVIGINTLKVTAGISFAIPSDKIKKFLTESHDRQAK", "experiment": "HTRA1 (cat) inhibitory activity using peptide substrate H2-Opt (Example 3-1)", "type": "biochemical", "details": "decomposition rate of H2-Opt; borate buffer pH 8.5; peptide 1.875 to 1,000 nM", "description": "A substrate peptide H2-Opt (Mca-IRRVSYSFK(Dnp)K) (SEQ ID NO:66) (Peptide Institute, Inc.: SEQ ID NO: 54, FIG. 8) was dissolved at 10 mM in DMSO, diluted with an assay buffer (50 mM borate and 150 mM NaCl, pH 8.5), and used at a final concentration of 10 μM. HTRA1 (HTRA1 (cat) or HTRA1 (full)) and each HTRA1-inhibiting peptide diluted with an assay buffer were mixed at 25 μL each and reacted at 37° C. for 20 minutes. Then, 50 μL of the substrate diluted with an assay buffer was added thereto. A fluorescent signal (excitation at 328 nm/emission at 393 nm) was measured using Enspire (PerkinElmer, Inc.). The final concentration of HTRA1 was 100 nM, and the final concentration of the HTRA1-inhibiting peptide was 1.875 to 1,000 nM. PROTEOSAV® SS96F black plate (Sumitomo Bakelite Co., Ltd.) was used in the reaction and the measurement.\nThe substrate peptide decomposition rate of the HTRA1-inhibiting peptide at each concentration was calculated. When the decomposition rate at an inhibitor concentration of 0 nM was defined as 100%, the HTRA1 (cat) and HTRA1 (full) inhibitory activity of each HTRA1-inhibiting peptide was evaluated (FIGS. 2 and 3)."}, "[2]": {"test_system": "human umbilical vein endothelial cells (HUVEC)", "experiment": "HUVEC migration test", "type": "cell-based", "details": "300 nM in EGM growth medium; 2 hours", "description": "HUVEC (Kurabo Industries Ltd.) was cultured for 18 hours under conditions of 37° C. and 5% CO2 in a medium (0.1% BSA-containing serum-free EGM) in which EBM™-2 basal medium (Lonza Walkersville, Inc.) containing 0.1% BSA was supplemented with an EGM™-2 SingleQuots™ additive factor set except for serum and VEGF. Then, the cells were adjusted to 4×10^5 cells/mL with 0.1% BSA-containing serum-free EGM. 4×10^5 cells/mL of the HUVEC suspension was added at 50 μL/well to the upper layer of a chamber of a Corning FluoroBlok HTS 96 Well Multiwell Permeable Support System with a […] High Density PET Membrane (Corning Inc.) having a gelatin-coated membrane. Then, each sample described below (medium 1, 2 or 3) was added at 210 μL/well to the lower layer of the chamber (n=3). […]\nA FluoroBlok HTS 96 Well Multiwell Support System supplemented with the cells and the sample was incubated for 2 hours under conditions of 37° C. and 5% CO2. […] The fluorescence intensity (excitation wavelength/fluorescence wavelength: 485 nm/535 nm) of each well was measured using a plate reader (ARVO-MX, PerkinElmer, Inc.), and the migrated cells were counted for each well according to the following expression. Migrated cells=Mean fluorescence intensity of wells containing HUVEC (n=3)—Mean fluorescence intensity of blank wells (n=3)."}, "[3]": {"test_system": "rat model of retinal damage induced by light exposure", "experiment": "Retinal protective effect in rat model of retinal damage induced by light exposure", "type": "in vivo", "description": "Rat models of retinal damage induced by light exposure are models that induce the cell death of retinal photoreceptor cells by light exposure and are universally used as model animals of retinal degeneration (Daniel T. Organisciak et al., (1996) Invest Ophthalmol Vis Sci. Vol. 37 (No. 11): p. 2243-2257). A 0.5% (W/V) tropicamide-0.5% phenylephrine hydrochloride ophthalmic solution was ocularly instilled under adaptation to darkness to rats adapted to darkness for 72 hours. Then, the rats were exposed to white light of 5500 Lux for 3 hours. The rats thus exposed were adapted again to darkness for about 24 hours and then raised for 2 days under light-dark conditions of ordinary raising. After euthanasia, the eyeballs were excised and fixed by dipping in a 3.7% (W/V) formaldehyde-0.5 to 1% (W/V) methanol-0.2% (W/V) picric acid fixative for 24 hours or longer. After paraffin embedding, thin sliced sections were prepared. The sections were stained with hematoxylin-eosin, and a nucleus count in an outer nuclear layer of a cross-section of the retina was determined to evaluate retinal damage.\nImmediately before light exposure of rats, 5 μL of HTRA1-inhibiting peptide H308 having a concentration of 0.04 mg/mL or 0.2 mg/mL was intravitreally administered under anesthesia. n=4 for a normal saline administration group, and n=5 for the other groups.\nThe retinal protective effects of three HTRA1-inhibiting peptides prepared in Example 6 were evaluated using the rat models of retinal damage induced by light exposure, constructed in Example (5-1). The operation followed Example 5. n=6 for all groups."}, "[4]": {"test_system": "ARPE-19 cells (VEGF mRNA)", "experiment": "VEGF mRNA induction test using human retinal pigment epithelial cells ARPE-19", "type": "cell-based", "details": "1 μM peptide co-added with H2O2 500 μM, normal human serum complement 25% and HTRA1 1 μM; 4 hours", "description": "ARPE-19 cells were cultured until confluent in 12 mm Transwell with […] Pore Polyester Membrane Insert, Sterile (Corning Inc.) under conditions of 37° C. and 5% CO2 using a DMEM/F-12 medium (Wako Pure Chemical Industries, Ltd.) containing 10% fetal bovine serum (FBS) and penicillin-streptomycin (Thermo Fisher Scientific Inc.). Then, the cells were cultured in FBS-free DMEM/F-12 for 5 days. H2O2 (final concentration: 500 μM) was added to the upper and lower layers of the chamber, and normal human serum complement (Quidel Corp.) (final concentration: 25%) was added to the upper layer of the chamber. […] Four hours later, the culture supernatant was removed, and the cells were washed with PBS. Then, mRNA was extracted using SuperPrep™ Cell Lysis & RT Kit for qPCR (Toyobo Co., Ltd.) and subjected to a reverse transcription reaction. The mRNA level of VEGF was quantitatively analyzed by TaqMan Gene Expression Assays (Hs000900055_m1 and Hs02786624_g1; Thermo Fisher Scientific Inc.) using a 7900HT Fast Real-Time PCR System (Applied Biosystems, Inc.). GAPDH was used in the correction of the mRNA level."}, "[5]": {"test_system": "HFD-HQ-loaded 3-year-old rabbits", "experiment": "Protective effect on RPE cells in rabbit retinal damage model (HFD-HQ loading)", "type": "in vivo", "details": "50 μL of 40 mg/mL intravitreally 2 months after start of HFD-HQ; evaluated at 4 months; vs normal saline fellow eye", "from_the_text": "Retinal damage models prepared using high-fat diet (HFD) and hydroquinone (HQ) are models in which oxidative stress is induced by a pro-oxidant to cause retinal damage. These models have been reported only for mice (Diego G. Espinosa-Heidmann et al., (2006) Invest Ophthalmol Vis Sci., Vol. 47 (No. 2): p. 729-737). Accordingly, 3-year-old JW rabbits were fed for 4 months with RC4 (Oriental Yeast Co., Ltd.) diet containing 1.5% (W/V) coconut oil-0.25% (W/V) cholesterol-1.5% (W/V) peanut oil-2.4% (W/V) hydroquinone (HFD-HQ) to construct rabbit retinal damage models. After euthanasia, the eyeballs were excised, and the anterior segment of the eye was removed by an external incision of about 5 mm from the corneal limbus. The vitreous body was further separated. Then, retina-choroid-sclera was fixed by dipping in 4% (W/V) paraformaldehyde fixative for 24 hours or longer. […] The stained choroid was observed under a fluorescence microscope (BZ-9000; Keyence Corp.). The area of stained retinal pigment epithelial (RPE) cells was determined to evaluate RPE cell damage.\nThe retinal protective effect of the HTRA1-inhibiting peptide H308 prepared in Example 1 was evaluated using the rabbit models. […]\nAfter 4 months from the start of feeding, RPE cell hypertrophy in the model animals was evaluated. […]"}, "[6]": {"details": "0.2 and 1 μg/eye intravitreally, n=6"}}, "note": "Where a chain is given by its changes, count along the chain named. Numbers in names are those of the source."}
{"molecule": "B1", "values": [{"measurement": "HTRA1 (cat) inhibitory activity (in words)", "setting": "[1]", "result": "exhibited no HTRA1 inhibitory activity"}]}
{"molecule": "B2", "values": [{"measurement": "migration of HUVEC induced in serum-containing medium", "setting": "[2]", "result": "suppressive effect on the migration of HUVEC"}, {"measurement": "nucleus count in an outer nuclear layer on a cross-section of the retina", "setting": "[3]; [6]", "result": "suppressed a decrease in nucleus count in an outer nuclear layer"}, {"measurement": "expression of VEGF mRNA", "setting": "[4]", "result": "confirmed to suppress the expression of VEGF"}]}
{"molecule": "B3", "values": [{"measurement": "nucleus count in an outer nuclear layer on a cross-section of the retina", "setting": "[3]; [6]", "result": "suppressed a decrease in nucleus count in an outer nuclear layer"}]}
{"molecule": "B4", "values": [{"measurement": "nucleus count in an outer nuclear layer on a cross-section of the retina", "setting": "[3]; [6]", "result": "suppressed a decrease in nucleus count in an outer nuclear layer"}]}
{"molecule": "B5", "values": [{"measurement": "hypertrophy of RPE cells: average area of RPE cells", "setting": "[5]", "result": "exhibited a suppressive effect on the hypertrophy of RPE cells"}, {"measurement": "hypertrophy of RPE cells: number of RPE cells having a cell area of 1500 μm^2 or larger", "setting": "[5]", "result": "exhibited a suppressive effect on the hypertrophy of RPE cells"}, {"measurement": "nucleus count in an outer nuclear layer on a cross-section of the retina", "setting": "[3]; 5 μL of 0.04 mg/mL or 0.2 mg/mL intravitreally immediately before light exposure, vs normal saline", "result": "effect of suppressing the decrease in nucleus count in an outer nuclear layer was confirmed"}]}
